# From patent US20230365714A1 (published 2023)
# Substitutions are numbered along the chain they refer to. Numbers in names are those of the source.
# B1: bsIgG1-huCD3-H101G-FEAL×chROR2-A-FEAR (bispecific antibody)
# heavy 1: not shown
# light 1: not shown
# heavy 2: QSVEESGGRLVTPGTPLTLTCTVSGFSLSSYSMSWVRQAPGKGLEWIGVIYVNSKTWYANWAKGRFTISKTSTTVDLKITSPTTEDTATYFCARGDAGYTTNSWLWGPGTLVTVSSASTKGPSVFPLAPSSKSTSGGTAALGCLVKDYFPEPVTVSWNSGALTSGVHTFPAVLQSSGLYSLSSVVTVPSSSLGTQTYICNVNHKPSNTKVDKRVEPKSCDKTHTCPPCPAPEFEGGPSVFLFPPKPKDTLMISRTPEVTCVVVAVSHEDPEVKFNWYVDGVEVHNAKTKPREEQYNSTYRVVSVLTVLHQDWLNGKEYKCKVSNKALPAPIEKTISKAKGQPREPQVYTLPPSREEMTKNQVSLTCLVKGFYPSDIAVEWESNGQPENNYKTTPPVLDSDGSFFLYSRLTVDKSRWQQGNVFSCSVMHEALHNHYTQKSLSLSPGK
# light 2: AFELTQTPASVSEPVGGTVTIKCQASESIDNYCSWYQQKPGQPPKLLIYQAFKLASGVPSRFRGSGSGTQFTLTISDLESDDAATYYCQSYSGISTTAFGGGTEVVVKRTVAAPSVFIFPPSDEQLKSGTASVVCLLNNFYPREAKVQWKVDNALQSGNSQESVTEQDSKDSTYSLSSTLTLSKADYEKHKVYACEVTHQGLSSPVTKSFNRGEC
# B2: IgG1-ROR2-A-HC6LC3-FEAR (antibody)
# heavy: EVQLLESGGGLVQPGGSLRLSCTVSGFSLSSYSMSWVRQAPGKGLEWIGVIYVNSKTWYADSVKGRFTISKDNSKNTVYLQMNSLRAEDTATYYCARGDAGYTTNSWLWGQGTLVTVSSASTKGPSVFPLAPSSKSTSGGTAALGCLVKDYFPEPVTVSWNSGALTSGVHTFPAVLQSSGLYSLSSVVTVPSSSLGTQTYICNVNHKPSNTKVDKRVEPKSCDKTHTCPPCPAPEFEGGPSVFLFPPKPKDTLMISRTPEVTCVVVAVSHEDPEVKFNWYVDGVEVHNAKTKPREEQYNSTYRVVSVLTVLHQDWLNGKEYKCKVSNKALPAPIEKTISKAKGQPREPQVYTLPPSREEMTKNQVSLTCLVKGFYPSDIAVEWESNGQPENNYKTTPPVLDSDGSFFLYSRLTVDKSRWQQGNVFSCSVMHEALHNHYTQKSLSLSPGK
# VL: AFELTQSPSSLSASVGDRVTITCQASESIDNYLSWYQQKPGKAPKLLIYQAFKLASGVPSRFRGSGSGTDFTLTISSLQPEDFATYYCQSYSGISTTAFGGGTKVEIK
# notes: Humanized variant
# B3: IgG1-ROR2-A-HC1LC2-FEAR (antibody, V domains shown)
# VH: QSVLESGGGLVQPGGSLRLSCTVSGFSLSSYSMSWVRQAPGKGLEWIGVIYVNSKTWYANWAKGRFTISKTSTTVDLKITSPTAEDTATYFCARGDAGYTTNSWLWGQGTLVTVSS
# VL: B2 VL with P80S, K104E, E106V
# notes: Humanized variant
# B4: IgG1-ROR2-A-HC7LC1-FEAR (antibody, V domains shown)
# VH: EVQLLESGGGLVQPGGSLRLSCAASGFSLSSYSMSWVRQAPGKGLEWIGVIYVNSKTWYADSVKGRFTISKDNSKNTVYLQMNSLRAEDTATYYCARGDAGYTTNSWLWGQGTLVTVSS
# VL: B2 VL with L33C, P80S, K104E, E106V
# notes: Humanized variant
# B5: IgG1-ROR2-A-HC2LC3-FEAR (antibody)
# heavy: QSVLESGGGLVQPGGSLRLSCTVSGFSLSSYSMSWVRQAPGKGLEWIGVIYVNSKTWYANWAKGRFTISKTSTTVYLQMNSLRAEDTATYFCARGDAGYTTNSWLWGQGTLVTVSSASTKGPSVFPLAPSSKSTSGGTAALGCLVKDYFPEPVTVSWNSGALTSGVHTFPAVLQSSGLYSLSSVVTVPSSSLGTQTYICNVNHKPSNTKVDKRVEPKSCDKTHTCPPCPAPEFEGGPSVFLFPPKPKDTLMISRTPEVTCVVVAVSHEDPEVKFNWYVDGVEVHNAKTKPREEQYNSTYRVVSVLTVLHQDWLNGKEYKCKVSNKALPAPIEKTISKAKGQPREPQVYTLPPSREEMTKNQVSLTCLVKGFYPSDIAVEWESNGQPENNYKTTPPVLDSDGSFFLYSRLTVDKSRWQQGNVFSCSVMHEALHNHYTQKSLSLSPGK
# VL: B2 VL
# notes: Humanized variant
# B6: IgG1-ROR2-A-HC1LC4-FEAR (antibody)
# heavy: B5 heavy with Y76D, Q78K, M79I, N80T, L82P, R83T
# VL: B2 VL with A1D, F2I, E3Q
# notes: Humanized variant
# B7: IgG1-ROR2-A-HC1LC1-FEAR (antibody, V domains shown)
# VH: B3 VH
# VL: B2 VL with L33C, P80S, K104E, E106V
# notes: Humanized variant
# B8: IgG1-ROR2-A-HC6LC4-FEAR (antibody)
# heavy: B2 heavy
# VL: B2 VL with A1D, F2I, E3Q
# notes: Humanized variant
# B9: IgG1-ROR2-A-HC7LC3-FEAR (antibody)
# heavy: B2 heavy with T23A, V24A
# VL: B2 VL
# notes: Humanized variant
# B10: IgG1-ROR2-A-HC2LC2-FEAR (antibody, V domains shown)
# VH: B3 VH with D76Y, K78Q, I79M, T80N, P82L, T83R
# VL: B2 VL with P80S, K104E, E106V
# notes: Humanized variant
# B11: IgG1-ROR2-A-HC2LC1-FEAR (antibody, V domains shown)
# VH: B3 VH with D76Y, K78Q, I79M, T80N, P82L, T83R
# VL: B2 VL with L33C, P80S, K104E, E106V
# notes: Humanized variant
# B12: IgG1-ROR2-A-HC7LC4-FEAR (antibody)
# heavy: B2 heavy with T23A, V24A
# VL: B2 VL with A1D, F2I, E3Q
# notes: Humanized variant
# B13: IgG1-ROR2-A-HC2LC4-FEAR (antibody)
# heavy: B5 heavy
# VL: B2 VL with A1D, F2I, E3Q
# notes: Humanized variant
# B14: IgG1-ROR2-A-HC1LC3-FEAR (antibody)
# heavy: B5 heavy with Y76D, Q78K, M79I, N80T, L82P, R83T
# VL: B2 VL
# notes: Humanized variant
# Target: T1, cynomolgus monkey ROR2 in which threonine at position 322 is replaced by methionine (ROR2mf-T322M) (cynomolgus monkey (Macaca fascicularis), UniProt Q01974 34-943 (human entry))
# T1 construct: also called RORmf-T322M
# Assay: flow cytometry on CHO cells expressing ROR2mf-T322M
row,binding result,Binder
1,binds,B1

# Target: T2, his-tagged ROR2 extracellular domain (ROR2-ECD, G&P Biosciences, cat. no. FCL0192) (human, UniProt Q01974 34-403)
# T2 construct: Bought protein; also called human ROR2-ECD; recombinant human ROR2-ECD; not shown: his tag
# Assay: BLI (Octet), antibody on anti-human IgG Fc sensor, ROR2-ECD 1.56-100 nM as analyte
# T2 sequence (Q01974 34-403): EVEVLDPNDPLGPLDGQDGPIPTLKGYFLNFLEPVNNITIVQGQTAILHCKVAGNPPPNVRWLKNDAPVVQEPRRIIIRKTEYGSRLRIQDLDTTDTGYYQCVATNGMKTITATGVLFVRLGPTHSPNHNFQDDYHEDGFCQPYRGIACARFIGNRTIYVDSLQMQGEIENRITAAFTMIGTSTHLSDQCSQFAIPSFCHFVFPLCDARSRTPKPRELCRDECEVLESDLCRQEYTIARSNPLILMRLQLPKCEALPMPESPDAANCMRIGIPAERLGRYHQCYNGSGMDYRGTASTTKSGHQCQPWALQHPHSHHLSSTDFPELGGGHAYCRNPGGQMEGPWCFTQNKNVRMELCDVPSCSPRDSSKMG
Kd [nM],koff [s⁻¹],kon [M⁻¹ s⁻¹],Binder
4,0.0023,560000,B2
1.9,0.0011,590000,B3
3.8,0.0021,540000,B4
2,0.001,490000,B5
2,0.0012,560000,B6
1.6,0.00096,590000,B7
4.4,0.0025,570000,B8
5.1,0.0028,550000,B9
1.8,0.00089,510000,B10
1.7,0.00085,510000,B11
5.6,0.0032,570000,B12
2.2,0.0011,510000,B13
1.8,0.00097,550000,B14

# Target: human (Homo sapiens) ROR2, full length, on cells (human, UniProt Q01974 34-943)
# Assay: cell-based or functional assay
# human (Homo sapiens) ROR2, full length, on cells, sequence (Q01974 34-943 limits assumed): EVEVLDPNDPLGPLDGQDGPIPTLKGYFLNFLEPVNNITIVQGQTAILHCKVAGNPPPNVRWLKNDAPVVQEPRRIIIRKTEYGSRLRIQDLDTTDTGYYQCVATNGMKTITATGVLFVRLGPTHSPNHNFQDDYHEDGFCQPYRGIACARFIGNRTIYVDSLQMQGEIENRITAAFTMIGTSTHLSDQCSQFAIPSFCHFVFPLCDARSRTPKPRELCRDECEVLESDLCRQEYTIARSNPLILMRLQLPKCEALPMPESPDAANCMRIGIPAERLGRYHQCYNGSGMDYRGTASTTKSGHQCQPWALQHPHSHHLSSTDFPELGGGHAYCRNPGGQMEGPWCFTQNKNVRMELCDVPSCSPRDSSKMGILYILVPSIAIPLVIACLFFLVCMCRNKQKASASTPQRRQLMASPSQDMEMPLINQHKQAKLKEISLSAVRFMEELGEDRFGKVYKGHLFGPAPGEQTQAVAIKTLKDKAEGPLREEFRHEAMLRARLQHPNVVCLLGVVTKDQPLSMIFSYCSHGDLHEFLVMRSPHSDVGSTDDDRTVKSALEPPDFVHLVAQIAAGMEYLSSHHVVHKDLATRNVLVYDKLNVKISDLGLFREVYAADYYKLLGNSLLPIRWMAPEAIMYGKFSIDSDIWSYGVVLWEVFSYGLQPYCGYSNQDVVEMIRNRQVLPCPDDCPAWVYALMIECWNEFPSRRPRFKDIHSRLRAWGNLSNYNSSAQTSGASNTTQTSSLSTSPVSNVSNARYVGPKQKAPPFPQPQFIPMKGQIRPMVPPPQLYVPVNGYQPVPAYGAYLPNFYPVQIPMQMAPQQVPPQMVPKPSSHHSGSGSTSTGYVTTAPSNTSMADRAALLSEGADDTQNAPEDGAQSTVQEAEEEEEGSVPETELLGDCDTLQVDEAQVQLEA
Binder,"IC50 of T cell mediated cytotoxicity, 786-O cells, human T cells, E:T 8:1 [µg/mL]","IC50 of T cell mediated cytotoxicity, Hela cells, human T cells, E:T 8:1 [µg/mL]","IC50 of T cell mediated cytotoxicity, LCLC-103H cells, human T cells, E:T 8:1 [µg/mL]","IC50 of T cell mediated cytotoxicity, NCI-H23 cells, human T cells, E:T 8:1 [µg/mL]","IC50 of T cell mediated cytotoxicity, NCI-H1650 cells, human T cells, E:T 8:1 [µg/mL]","IC50 of T cell mediated cytotoxicity, ZR-75-1 cells, human T cells, E:T 8:1 [µg/mL]"
B1,0.088,0.424,0.511,0.58,0.693,0.424
